Laboratory results as given in patent US20050277581A1.
Where “and” joins values, the source holds several entries; their conditions need not be identical. Equal values may be shown once.

Experiments:
human serum proteins = assay: cell-based or functional assay
mouse serum proteins = assay: cell-based or functional assay
[1] = target: N,N′-diacetyl-Lys-D-Ala-D-Ala (Sigma D-9904, fw 372.4); assay: ITC, 25 C, non-competitive binding model (KL)
[2] = target: N,N′-diacetyl-Lys-D-Ala-D-Ala (Sigma D-9904, fw 372.4); assay: ITC, 25 C, 104 µM HSA present
[3] = target: N,N′-diacetyl-Lys-D-Ala-D-Ala (Sigma D-9904, fw 372.4); assay: ITC, 37 C, no HSA
[4] = target: human albumin (HSA; Sigma A-3782; mw 69,366) (human) (UniProt P02768); assay: calculated from ITC Ka, dalbavancin 1-500 µM
[5] = target: N,N′-diacetyl-Lys-D-Ala-D-Ala (Sigma D-9904, fw 372.4); assay: ITC, 37 C, 482 µM HSA present
[6] = target: N,N′-diacetyl-Lys-D-Ala-D-Ala (Sigma D-9904, fw 372.4); assay: ITC, 25 C, 430 µM HSA present
[7] = target: N,N′-diacetyl-Lys-D-Ala-D-Ala (Sigma D-9904, fw 372.4); assay: ITC, preliminary experiments, no serum proteins
[8] = target: N,N′-diacetyl-Lys-D-Ala-D-Ala (Sigma D-9904, fw 372.4); assay: ITC, 25 C, 601 µM HSA present
[9] = target: N,N′-diacetyl-Lys-D-Ala-D-Ala (Sigma D-9904, fw 372.4); assay: ITC, 25 C, 288 µM HSA present
bovine albumin (bovine) = bovine albumin (bovine) (UniProt P02769); assay: ITC, protein injected into dalbavancin
Chain of bovine albumin (bovine) (P02769 25-607 limits assumed): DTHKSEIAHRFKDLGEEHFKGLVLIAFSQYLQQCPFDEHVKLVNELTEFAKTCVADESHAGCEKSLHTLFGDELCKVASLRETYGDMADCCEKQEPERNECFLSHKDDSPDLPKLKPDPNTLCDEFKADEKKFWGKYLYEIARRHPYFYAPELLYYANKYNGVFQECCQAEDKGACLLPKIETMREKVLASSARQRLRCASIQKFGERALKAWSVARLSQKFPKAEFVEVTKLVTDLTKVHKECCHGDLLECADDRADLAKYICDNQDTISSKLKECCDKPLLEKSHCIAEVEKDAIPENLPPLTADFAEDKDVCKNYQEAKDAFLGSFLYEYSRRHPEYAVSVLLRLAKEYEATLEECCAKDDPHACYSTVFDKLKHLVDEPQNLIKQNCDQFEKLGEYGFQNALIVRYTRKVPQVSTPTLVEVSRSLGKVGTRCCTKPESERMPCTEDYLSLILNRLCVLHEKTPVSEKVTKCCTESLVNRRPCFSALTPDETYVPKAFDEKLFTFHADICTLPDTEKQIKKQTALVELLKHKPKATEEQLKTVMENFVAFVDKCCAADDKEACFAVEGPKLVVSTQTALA

rat albumin (rat) = rat albumin (rat) (UniProt P02770); assay: ITC, protein injected into dalbavancin
Chain of rat albumin (rat) (P02770 25-608 limits assumed): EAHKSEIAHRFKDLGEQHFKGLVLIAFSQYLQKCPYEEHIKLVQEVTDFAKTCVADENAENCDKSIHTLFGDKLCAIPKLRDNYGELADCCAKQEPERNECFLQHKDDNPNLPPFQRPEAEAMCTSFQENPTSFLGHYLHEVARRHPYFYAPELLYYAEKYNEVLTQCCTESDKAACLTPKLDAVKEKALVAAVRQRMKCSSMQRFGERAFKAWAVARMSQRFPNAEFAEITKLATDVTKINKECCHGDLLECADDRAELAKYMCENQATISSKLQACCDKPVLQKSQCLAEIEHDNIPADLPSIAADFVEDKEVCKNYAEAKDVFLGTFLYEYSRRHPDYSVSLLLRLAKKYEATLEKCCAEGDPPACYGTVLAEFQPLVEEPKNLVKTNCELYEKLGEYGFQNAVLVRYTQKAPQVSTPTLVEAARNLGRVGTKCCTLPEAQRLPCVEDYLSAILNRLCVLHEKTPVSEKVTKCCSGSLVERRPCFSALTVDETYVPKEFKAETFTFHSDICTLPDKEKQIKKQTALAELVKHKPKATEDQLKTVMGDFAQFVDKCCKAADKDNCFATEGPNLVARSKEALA

dog albumin (dog) = dog albumin (dog) (UniProt P49822); assay: ITC, protein injected into dalbavancin
Chain of dog albumin (dog) (P49822 25-608 limits assumed): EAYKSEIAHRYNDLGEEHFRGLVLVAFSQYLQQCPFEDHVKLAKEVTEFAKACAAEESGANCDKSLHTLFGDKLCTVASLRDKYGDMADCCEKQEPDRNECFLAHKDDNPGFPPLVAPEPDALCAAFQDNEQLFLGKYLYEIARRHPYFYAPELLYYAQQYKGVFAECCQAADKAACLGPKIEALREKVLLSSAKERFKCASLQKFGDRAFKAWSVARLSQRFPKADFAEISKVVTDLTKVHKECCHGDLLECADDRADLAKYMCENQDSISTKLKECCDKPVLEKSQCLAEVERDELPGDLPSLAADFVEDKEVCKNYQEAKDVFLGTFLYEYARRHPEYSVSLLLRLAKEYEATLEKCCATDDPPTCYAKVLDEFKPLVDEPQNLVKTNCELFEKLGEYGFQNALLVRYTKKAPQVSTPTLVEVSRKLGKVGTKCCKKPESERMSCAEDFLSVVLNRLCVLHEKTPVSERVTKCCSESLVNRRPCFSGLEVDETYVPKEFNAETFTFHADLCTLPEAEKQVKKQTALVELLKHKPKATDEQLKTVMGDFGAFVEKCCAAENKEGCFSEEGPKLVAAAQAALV

[10] = target: human α-glycoprotein (human) (UniProt P02763); assay: ITC, protein injected into dalbavancin
Chain of human α-glycoprotein (human) (P02763 19-201): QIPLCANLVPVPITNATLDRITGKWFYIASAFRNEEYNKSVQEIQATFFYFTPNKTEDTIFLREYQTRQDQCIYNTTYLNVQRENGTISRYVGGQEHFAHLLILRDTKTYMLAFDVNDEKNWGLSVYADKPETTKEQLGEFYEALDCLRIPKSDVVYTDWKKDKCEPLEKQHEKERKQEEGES

[11] = target: N,N′-diacetyl-Lys-D-Ala-D-Ala (Sigma D-9904, fw 372.4); assay: ITC, 25 C, no HSA
[12] = target: N,N′-diacetyl-Lys-D-Ala-D-Ala (Sigma D-9904, fw 372.4); assay: ITC, 25 C, 513 µM HSA present
[13] = target: N,N′-diacetyl-Lys-D-Ala-D-Ala (Sigma D-9904, fw 372.4); assay: ITC, 10 C, no HSA

degree of binding in human serum estimated from MIC difference (human serum proteins) [%] | degree of protein binding estimated from MIC difference (mouse serum proteins) [%] | Kd [1] [µM] | N [2] | N [3] | percent bound [4] [%] | N [5] | N [6] | Kd [7] [µM] | N [8] | N [9] | N (moles of protein per dalbavancin) (bovine albumin (bovine)) | N (moles of protein per dalbavancin) (rat albumin (rat)) | N (moles of protein per dalbavancin) (dog albumin (dog)) | N (moles of protein per dalbavancin) [10] | N [11] | N [12] | N [13] | Substance
96 | 99.6 | 3 | 1.38 | 0.82 | > 98 | 0.179 | 1.24 | 10 | 0.86 | 0.9 | < 1 | < 1 | < 1 | < 1 | – | – | – | Dalbavancin (peptide)
– | – | – | – | – | – | – | – | – | – | – | – | – | – | – | 0.91 and 0.97 | 1.05 | 1.1 | Vancomycin hydrochloride (Sigma V-2002, fw 1485.7) (peptide)
